The target of test [1] is T1, CRF1R receptor (UniProt P34998 24-415, limits assumed).
T1 sequence (looked up): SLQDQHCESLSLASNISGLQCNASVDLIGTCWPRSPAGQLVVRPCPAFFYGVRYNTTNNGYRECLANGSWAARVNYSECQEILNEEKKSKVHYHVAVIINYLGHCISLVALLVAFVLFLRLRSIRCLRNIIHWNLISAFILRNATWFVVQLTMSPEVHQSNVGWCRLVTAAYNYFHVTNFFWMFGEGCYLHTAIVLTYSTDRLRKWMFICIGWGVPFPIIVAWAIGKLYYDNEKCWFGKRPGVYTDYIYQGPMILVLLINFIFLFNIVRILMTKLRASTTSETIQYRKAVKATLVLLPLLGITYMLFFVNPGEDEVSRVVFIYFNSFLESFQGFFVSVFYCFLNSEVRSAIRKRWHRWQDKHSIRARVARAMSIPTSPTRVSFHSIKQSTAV
Nature of the test: cell-based or functional assay.

Test [2] deals with human corticotropin-releasing factor 2a (CRF2a receptor) (human), Q13324. The test can be described thus: cell-based or functional assay.
Sequence of human corticotropin-releasing factor 2a (CRF2a receptor) (human), Q13324 (Q13324 20-411): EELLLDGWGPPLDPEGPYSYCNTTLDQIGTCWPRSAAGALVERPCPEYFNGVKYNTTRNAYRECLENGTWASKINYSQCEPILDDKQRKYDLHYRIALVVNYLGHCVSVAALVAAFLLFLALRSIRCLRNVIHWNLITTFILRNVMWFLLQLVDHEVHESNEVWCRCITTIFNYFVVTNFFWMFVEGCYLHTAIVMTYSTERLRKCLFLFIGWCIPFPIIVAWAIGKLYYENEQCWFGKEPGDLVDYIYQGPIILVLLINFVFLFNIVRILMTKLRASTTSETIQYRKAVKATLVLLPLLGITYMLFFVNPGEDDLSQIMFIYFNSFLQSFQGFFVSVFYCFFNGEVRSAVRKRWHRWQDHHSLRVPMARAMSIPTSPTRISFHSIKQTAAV

*1 amine or outer side, *2 acyl side, *3 side chain or, on linkers, in order; H or OH if unused. Side-chain parts run from the residue outwards. [ ]: non-standard residue; d: D form. The star is where a group is joined. C16 diacid = O=C(O)CCCCCCCCCCCCCCC(=O)*; γGlu = O=C(O)[C@H](CCC(=O)[*:2])N[*:1]; C14 diacid = O=C(O)CCCCCCCCCCCCC(=O)*; Api = NC1(C(=O)O)CCNCC1; Aib = CC(C)(N)C(=O)O

B1: SEQ ID NO 167 (peptide)
peptide: Ac-IVLSLD[dV]PIKLK([γGlu-C16 diacid])KILLEQEKQKKQAEQAETN[Aib]QILAQV-NH2
SMILES: CC[C@H](C)[C@H](NC(C)=O)C(=O)N[C@H](C(=O)N[C@@H](CC(C)C)C(=O)N[C@@H](CO)C(=O)N[C@@H](CC(C)C)C(=O)N[C@@H](CC(=O)O)C(=O)N[C@@H](C(=O)N1CCC[C@H]1C(=O)N[C@H](C(=O)N[C@@H](CCCCN)C(=O)N[C@@H](CC(C)C)C(=O)N[C@@H](CCCCNC(=O)CC[C@H](NC(=O)CCCCCCCCCCCCCCC(=O)O)C(=O)O)C(=O)N[C@@H](CCCCN)C(=O)N[C@H](C(=O)N[C@@H](CC(C)C)C(=O)N[C@@H](CC(C)C)C(=O)N[C@@H](CCC(=O)O)C(=O)N[C@@H](CCC(N)=O)C(=O)N[C@@H](CCC(=O)O)C(=O)N[C@@H](CCCCN)C(=O)N[C@@H](CCC(N)=O)C(=O)N[C@@H](CCCCN)C(=O)N[C@@H](CCCCN)C(=O)N[C@@H](CCC(N)=O)C(=O)N[C@@H](C)C(=O)N[C@@H](CCC(=O)O)C(=O)N[C@@H](CCC(N)=O)C(=O)N[C@@H](C)C(=O)N[C@@H](CCC(=O)O)C(=O)N[C@H](C(=O)N[C@@H](CC(N)=O)C(=O)NC(C)(C)C(=O)N[C@@H](CCC(N)=O)C(=O)N[C@H](C(=O)N[C@@H](CC(C)C)C(=O)N[C@@H](C)C(=O)N[C@@H](CCC(N)=O)C(=O)N[C@H](C(N)=O)C(C)C)[C@@H](C)CC)[C@@H](C)O)[C@@H](C)CC)[C@@H](C)CC)C(C)C)C(C)C
With B1, the “Emax (% I)” value in test [1] stood at 7%. This molecule registered an EC50 [nM] (cAMP) in test [2] of 1.15 nM.

B2: SEQ ID NO 170 (peptide)
peptide: Ac-IVLSLD[dV]PIKLK([γGlu-C14 diacid])KILLEQEKQK[Aib]QREQAETN[Api]QILAQV-NH2
SMILES: CC[C@H](C)[C@H](NC(C)=O)C(=O)N[C@H](C(=O)N[C@@H](CC(C)C)C(=O)N[C@@H](CO)C(=O)N[C@@H](CC(C)C)C(=O)N[C@@H](CC(=O)O)C(=O)N[C@@H](C(=O)N1CCC[C@H]1C(=O)N[C@H](C(=O)N[C@@H](CCCCN)C(=O)N[C@@H](CC(C)C)C(=O)N[C@@H](CCCCNC(=O)CC[C@H](NC(=O)CCCCCCCCCCCCC(=O)O)C(=O)O)C(=O)N[C@@H](CCCCN)C(=O)N[C@H](C(=O)N[C@@H](CC(C)C)C(=O)N[C@@H](CC(C)C)C(=O)N[C@@H](CCC(=O)O)C(=O)N[C@@H](CCC(N)=O)C(=O)N[C@@H](CCC(=O)O)C(=O)N[C@@H](CCCCN)C(=O)N[C@@H](CCC(N)=O)C(=O)N[C@@H](CCCCN)C(=O)NC(C)(C)C(=O)N[C@@H](CCC(N)=O)C(=O)N[C@@H](CCCNC(=N)N)C(=O)N[C@@H](CCC(=O)O)C(=O)N[C@@H](CCC(N)=O)C(=O)N[C@@H](C)C(=O)N[C@@H](CCC(=O)O)C(=O)N[C@H](C(=O)N[C@@H](CC(N)=O)C(=O)NC1(C(=O)N[C@@H](CCC(N)=O)C(=O)N[C@H](C(=O)N[C@@H](CC(C)C)C(=O)N[C@@H](C)C(=O)N[C@@H](CCC(N)=O)C(=O)N[C@H](C(N)=O)C(C)C)[C@@H](C)CC)CCNCC1)[C@@H](C)O)[C@@H](C)CC)[C@@H](C)CC)C(C)C)C(C)C
As to B2, the “Emax (% I)” value in test [1] is 5%. In test [2], the EC50 [nM] (cAMP) came out at 1.28 nM.

B3: SEQ ID NO 166 (peptide)
peptide: Ac-IVLSLD[dV]PIKLK([γGlu-C16 diacid])KILLEQEKQAKQREQAETN[Aib]QILAQV-NH2
SMILES: CC[C@H](C)[C@H](NC(C)=O)C(=O)N[C@H](C(=O)N[C@@H](CC(C)C)C(=O)N[C@@H](CO)C(=O)N[C@@H](CC(C)C)C(=O)N[C@@H](CC(=O)O)C(=O)N[C@@H](C(=O)N1CCC[C@H]1C(=O)N[C@H](C(=O)N[C@@H](CCCCN)C(=O)N[C@@H](CC(C)C)C(=O)N[C@@H](CCCCNC(=O)CC[C@H](NC(=O)CCCCCCCCCCCCCCC(=O)O)C(=O)O)C(=O)N[C@@H](CCCCN)C(=O)N[C@H](C(=O)N[C@@H](CC(C)C)C(=O)N[C@@H](CC(C)C)C(=O)N[C@@H](CCC(=O)O)C(=O)N[C@@H](CCC(N)=O)C(=O)N[C@@H](CCC(=O)O)C(=O)N[C@@H](CCCCN)C(=O)N[C@@H](CCC(N)=O)C(=O)N[C@@H](C)C(=O)N[C@@H](CCCCN)C(=O)N[C@@H](CCC(N)=O)C(=O)N[C@@H](CCCNC(=N)N)C(=O)N[C@@H](CCC(=O)O)C(=O)N[C@@H](CCC(N)=O)C(=O)N[C@@H](C)C(=O)N[C@@H](CCC(=O)O)C(=O)N[C@H](C(=O)N[C@@H](CC(N)=O)C(=O)NC(C)(C)C(=O)N[C@@H](CCC(N)=O)C(=O)N[C@H](C(=O)N[C@@H](CC(C)C)C(=O)N[C@@H](C)C(=O)N[C@@H](CCC(N)=O)C(=O)N[C@H](C(N)=O)C(C)C)[C@@H](C)CC)[C@@H](C)O)[C@@H](C)CC)[C@@H](C)CC)C(C)C)C(C)C
As to B3, in test [1], the “Emax (% I)” value was 5%. The molecule further registered an EC50 [nM] (cAMP) in test [2] of 0.77 nM.

B4: SEQ ID NO 168 (peptide)
peptide: Ac-IVLSLD[dV]PIKLK([γGlu-C16 diacid])KILLEQEKQKEQREQAETN[Aib]QILAQV-NH2
SMILES: CC[C@H](C)[C@H](NC(C)=O)C(=O)N[C@H](C(=O)N[C@@H](CC(C)C)C(=O)N[C@@H](CO)C(=O)N[C@@H](CC(C)C)C(=O)N[C@@H](CC(=O)O)C(=O)N[C@@H](C(=O)N1CCC[C@H]1C(=O)N[C@H](C(=O)N[C@@H](CCCCN)C(=O)N[C@@H](CC(C)C)C(=O)N[C@@H](CCCCNC(=O)CC[C@H](NC(=O)CCCCCCCCCCCCCCC(=O)O)C(=O)O)C(=O)N[C@@H](CCCCN)C(=O)N[C@H](C(=O)N[C@@H](CC(C)C)C(=O)N[C@@H](CC(C)C)C(=O)N[C@@H](CCC(=O)O)C(=O)N[C@@H](CCC(N)=O)C(=O)N[C@@H](CCC(=O)O)C(=O)N[C@@H](CCCCN)C(=O)N[C@@H](CCC(N)=O)C(=O)N[C@@H](CCCCN)C(=O)N[C@@H](CCC(=O)O)C(=O)N[C@@H](CCC(N)=O)C(=O)N[C@@H](CCCNC(=N)N)C(=O)N[C@@H](CCC(=O)O)C(=O)N[C@@H](CCC(N)=O)C(=O)N[C@@H](C)C(=O)N[C@@H](CCC(=O)O)C(=O)N[C@H](C(=O)N[C@@H](CC(N)=O)C(=O)NC(C)(C)C(=O)N[C@@H](CCC(N)=O)C(=O)N[C@H](C(=O)N[C@@H](CC(C)C)C(=O)N[C@@H](C)C(=O)N[C@@H](CCC(N)=O)C(=O)N[C@H](C(N)=O)C(C)C)[C@@H](C)CC)[C@@H](C)O)[C@@H](C)CC)[C@@H](C)CC)C(C)C)C(C)C
As to B4, the “Emax (% I)” value in test [1] turned out to be 3%. Further, the EC50 [nM] (cAMP) in test [2] turned out to be 0.8 nM.

B5: SEQ ID NO 169 (peptide)
peptide: Ac-IVLSLD[dV]PIKLK([γGlu-C14 diacid])KILLEQEKQKAQREQAETN[Api]QILAQV-NH2
SMILES: CC[C@H](C)[C@H](NC(C)=O)C(=O)N[C@H](C(=O)N[C@@H](CC(C)C)C(=O)N[C@@H](CO)C(=O)N[C@@H](CC(C)C)C(=O)N[C@@H](CC(=O)O)C(=O)N[C@@H](C(=O)N1CCC[C@H]1C(=O)N[C@H](C(=O)N[C@@H](CCCCN)C(=O)N[C@@H](CC(C)C)C(=O)N[C@@H](CCCCNC(=O)CC[C@H](NC(=O)CCCCCCCCCCCCC(=O)O)C(=O)O)C(=O)N[C@@H](CCCCN)C(=O)N[C@H](C(=O)N[C@@H](CC(C)C)C(=O)N[C@@H](CC(C)C)C(=O)N[C@@H](CCC(=O)O)C(=O)N[C@@H](CCC(N)=O)C(=O)N[C@@H](CCC(=O)O)C(=O)N[C@@H](CCCCN)C(=O)N[C@@H](CCC(N)=O)C(=O)N[C@@H](CCCCN)C(=O)N[C@@H](C)C(=O)N[C@@H](CCC(N)=O)C(=O)N[C@@H](CCCNC(=N)N)C(=O)N[C@@H](CCC(=O)O)C(=O)N[C@@H](CCC(N)=O)C(=O)N[C@@H](C)C(=O)N[C@@H](CCC(=O)O)C(=O)N[C@H](C(=O)N[C@@H](CC(N)=O)C(=O)NC1(C(=O)N[C@@H](CCC(N)=O)C(=O)N[C@H](C(=O)N[C@@H](CC(C)C)C(=O)N[C@@H](C)C(=O)N[C@@H](CCC(N)=O)C(=O)N[C@H](C(N)=O)C(C)C)[C@@H](C)CC)CCNCC1)[C@@H](C)O)[C@@H](C)CC)[C@@H](C)CC)C(C)C)C(C)C
Turning to B5, the “Emax (% I)” value in test [1] was found to be 13%. In test [2], the EC50 [nM] (cAMP) turned out to be 1.34 nM.

B6: SEQ ID NO 165 (peptide)
peptide: Ac-IVLSLD[dV]PIKLK([γGlu-C16 diacid])KILLEQEAQKKQREQAETN[Aib]QILAQV-NH2
SMILES: CC[C@H](C)[C@H](NC(C)=O)C(=O)N[C@H](C(=O)N[C@@H](CC(C)C)C(=O)N[C@@H](CO)C(=O)N[C@@H](CC(C)C)C(=O)N[C@@H](CC(=O)O)C(=O)N[C@@H](C(=O)N1CCC[C@H]1C(=O)N[C@H](C(=O)N[C@@H](CCCCN)C(=O)N[C@@H](CC(C)C)C(=O)N[C@@H](CCCCNC(=O)CC[C@H](NC(=O)CCCCCCCCCCCCCCC(=O)O)C(=O)O)C(=O)N[C@@H](CCCCN)C(=O)N[C@H](C(=O)N[C@@H](CC(C)C)C(=O)N[C@@H](CC(C)C)C(=O)N[C@@H](CCC(=O)O)C(=O)N[C@@H](CCC(N)=O)C(=O)N[C@@H](CCC(=O)O)C(=O)N[C@@H](C)C(=O)N[C@@H](CCC(N)=O)C(=O)N[C@@H](CCCCN)C(=O)N[C@@H](CCCCN)C(=O)N[C@@H](CCC(N)=O)C(=O)N[C@@H](CCCNC(=N)N)C(=O)N[C@@H](CCC(=O)O)C(=O)N[C@@H](CCC(N)=O)C(=O)N[C@@H](C)C(=O)N[C@@H](CCC(=O)O)C(=O)N[C@H](C(=O)N[C@@H](CC(N)=O)C(=O)NC(C)(C)C(=O)N[C@@H](CCC(N)=O)C(=O)N[C@H](C(=O)N[C@@H](CC(C)C)C(=O)N[C@@H](C)C(=O)N[C@@H](CCC(N)=O)C(=O)N[C@H](C(N)=O)C(C)C)[C@@H](C)CC)[C@@H](C)O)[C@@H](C)CC)[C@@H](C)CC)C(C)C)C(C)C
In the case of B6, the “Emax (% I)” value in test [1] is 14%. This molecule also came in with an EC50 [nM] (cAMP) in test [2] of 0.64 nM.

Source of the values: patent US20260001928A1 (CORTERIA PHARMACEUTICALS, priority 2022, published 2026).
